# Results reported in patent US20230203538A1.
# What was measured:
# [1] = molecular target: CD5 on human ACH2 immortalized T cells (human) (UniProt P06127); experiment: cell-based or functional assay
# [2] = molecular target: CD5 on murine T cells (mouse) (UniProt P13379); experiment: cell-based or functional assay
# UniProt P13379, sequence (P13379 24-494 limits assumed): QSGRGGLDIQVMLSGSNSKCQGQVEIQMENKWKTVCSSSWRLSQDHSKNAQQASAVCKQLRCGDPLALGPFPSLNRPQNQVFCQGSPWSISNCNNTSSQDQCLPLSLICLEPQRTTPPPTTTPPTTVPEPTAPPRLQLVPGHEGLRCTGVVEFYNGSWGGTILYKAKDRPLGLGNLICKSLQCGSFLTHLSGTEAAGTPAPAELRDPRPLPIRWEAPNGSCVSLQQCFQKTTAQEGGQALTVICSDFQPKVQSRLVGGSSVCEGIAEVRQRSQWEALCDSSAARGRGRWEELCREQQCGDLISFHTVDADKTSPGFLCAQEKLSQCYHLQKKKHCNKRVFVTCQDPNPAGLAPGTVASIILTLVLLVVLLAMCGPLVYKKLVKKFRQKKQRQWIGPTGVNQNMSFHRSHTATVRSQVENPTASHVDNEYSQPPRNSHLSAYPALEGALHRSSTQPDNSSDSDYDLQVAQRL
# UniProt P06127, sequence (P06127 25-495 limits assumed): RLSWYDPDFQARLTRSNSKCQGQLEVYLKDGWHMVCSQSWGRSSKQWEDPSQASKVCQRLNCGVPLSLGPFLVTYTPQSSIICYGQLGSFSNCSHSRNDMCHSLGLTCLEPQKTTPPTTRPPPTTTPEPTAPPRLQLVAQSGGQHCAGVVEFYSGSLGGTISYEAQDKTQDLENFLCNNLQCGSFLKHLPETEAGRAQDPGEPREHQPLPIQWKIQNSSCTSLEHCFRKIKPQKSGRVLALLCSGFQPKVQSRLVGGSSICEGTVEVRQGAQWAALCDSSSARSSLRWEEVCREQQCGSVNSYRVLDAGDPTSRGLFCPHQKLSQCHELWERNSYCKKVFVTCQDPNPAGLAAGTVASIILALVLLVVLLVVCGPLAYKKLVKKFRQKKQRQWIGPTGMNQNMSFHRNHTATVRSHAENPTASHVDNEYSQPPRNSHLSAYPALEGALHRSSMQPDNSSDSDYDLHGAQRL
substance,measurement,setting,value
"mouse anti-human CD5, clone UCHT2 (BioLegend), conjugated to LNP-mRNA (antibody)",percent gene transfer (GFP) in human ACH2 T cells 24 hours after mixing with CD5/LNP-GFP,[1],89 to 93%
"purified rat anti-mouse CD5, clone 53-7.3 (BioLegend), conjugated to LNP-mRNA (antibody)",percent of murine T cells expressing FAPCAR 48 hours after incubation with CD5/LNP-FAPCAR (flow cytometry),[2],83%
same,percent of murine T cells expressing GFP 48 hours after incubation with CD5/LNP-GFP (flow cytometry),[2],78%
control isotype matched IgG conjugated to LNP-mRNA (antibody),percent of murine T cells that received mRNA from IgG/LNP-FAPCAR (flow cytometry),[2],7%
